Data taken from publication PMC2217592.

Legend:
[1] = biological target: TIRC7 (human (endogenous in PBL)) (UniProt Q13488)
[2] = biological target: TIRC7 (human (endogenous in PBL)) (UniProt Q13488); remark: listed apart in the source

UniProt Q13488, sequence (Q13488 217-830): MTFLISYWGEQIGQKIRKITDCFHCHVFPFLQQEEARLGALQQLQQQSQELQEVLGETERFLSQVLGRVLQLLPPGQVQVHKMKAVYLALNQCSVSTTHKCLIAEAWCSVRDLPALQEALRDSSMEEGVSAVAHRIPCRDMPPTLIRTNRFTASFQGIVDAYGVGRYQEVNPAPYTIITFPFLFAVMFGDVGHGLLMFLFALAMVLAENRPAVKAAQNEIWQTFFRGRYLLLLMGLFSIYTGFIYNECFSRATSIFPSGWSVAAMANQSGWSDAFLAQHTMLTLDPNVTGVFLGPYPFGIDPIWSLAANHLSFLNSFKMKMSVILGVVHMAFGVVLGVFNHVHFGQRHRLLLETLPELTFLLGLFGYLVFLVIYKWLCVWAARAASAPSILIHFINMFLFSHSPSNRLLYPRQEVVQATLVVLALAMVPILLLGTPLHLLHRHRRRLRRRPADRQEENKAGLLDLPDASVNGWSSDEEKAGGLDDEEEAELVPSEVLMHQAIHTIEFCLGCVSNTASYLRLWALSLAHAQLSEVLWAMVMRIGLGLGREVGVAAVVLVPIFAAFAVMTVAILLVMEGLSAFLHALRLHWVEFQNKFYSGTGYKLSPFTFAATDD

soluble HLA-DR alpha 2 fusion protein (entire human HLA-DR alpha 2 domain linked to an IgG1 Fc protein) (Fc fusion)
cells in G0/G1 cell cycle phase, human PBL activated with anti-CD3/CD28 48 h with sHLA-DRα2 50 µg/ml (propidium iodine, flow cytometry) [1]: 89%
subdiploid (apoptotic) cells 72 h after incubation of activated human PBL with sHLA-DRα2 [1]: 46.4%
apoptosis (Annexin V) of human CD4+ cells stimulated 72 h with anti-CD3/CD28, sHLA-DRα2 50 µg/ml [2]: 51%
apoptosis (Annexin V) of human CD8+ cells stimulated 72 h with anti-CD3/CD28, sHLA-DRα2 50 µg/ml [2]: 54%
